From paper PMC7893823, “Structural basis of nucleosomal histone H4 lysine 20 methylation by SET8 methyltransferase” (Life Science Alliance, 2021)

Biological target: histone H4 (human, UniProt P62805 1-103)
Test: cryo-EM structure; NCP or NCP^CENP-A (0.52 μM) mixed with SET8 (1.0 or 0.94 μM) at 25°C with 0.10 mM S-adenosyl-L-homocysteine, 50 mM NaCl, 50 mM KCl; complex purified by GraFix (sucrose gradient with paraformaldehyde cross-linking)
Conditions: both partners purified

binding result: binds
B1: human SET8 (KMT5A Isoform 2) (enzyme)
chain: MARGRKMSKPRAVEAAAAAAAVAATAPGPEMVERRGPGRPRTDGENVFTGQSKIYSYMSPNKCSGMRFPLQEENSVTHHEVKCQGKPLAGIYRKREEKRNAGNAVRSAMKSEEQKIKDARKGPLVPFPNQKSEAAEPPKTPPSSCDSTNAAIAKQALKKPIKGKQAPRKKAQGKTQQNRKLTDFYPVRRSSRKSKAELQSEERKRIDELIESGKEEGMKIDLIDGKGRGVIATKQFSRGDFVVEYHGDLIEITDAKKREALYAQDPSTGCYMYYFQYLSKTYCVDATRETNRLGRLINHSKCGNCQTKLHDIDGVPHLILIASRDIAAGEELLYDYGDRSKASIEAHPWLKH
notes: SET8 (KMT5A), human, isoform 2, UniProt Q9NQR1-2; residue numbers (Arg188, Arg192) count on isoform 2; His6 tag removed with PreScission protease (modified pET15b vector); also called PR-SET7; SETD8; source: E. coli BL21(DE3), purified (Ni-NTA, Mono S, Superdex 200)
